Data on 14 molecules can be found in patent US20230340152A1 (published 2023).

Where a chain is given by its changes, count along the chain named. Names may count otherwise.

T1: Murine CD73 on cells (4T1, Jurkat mCD73 knock-in) (murine, UniProt Q61503 29-551)
T1 construct: whole, on cells; also called 4T1 (murine)
T1 sequence (looked up): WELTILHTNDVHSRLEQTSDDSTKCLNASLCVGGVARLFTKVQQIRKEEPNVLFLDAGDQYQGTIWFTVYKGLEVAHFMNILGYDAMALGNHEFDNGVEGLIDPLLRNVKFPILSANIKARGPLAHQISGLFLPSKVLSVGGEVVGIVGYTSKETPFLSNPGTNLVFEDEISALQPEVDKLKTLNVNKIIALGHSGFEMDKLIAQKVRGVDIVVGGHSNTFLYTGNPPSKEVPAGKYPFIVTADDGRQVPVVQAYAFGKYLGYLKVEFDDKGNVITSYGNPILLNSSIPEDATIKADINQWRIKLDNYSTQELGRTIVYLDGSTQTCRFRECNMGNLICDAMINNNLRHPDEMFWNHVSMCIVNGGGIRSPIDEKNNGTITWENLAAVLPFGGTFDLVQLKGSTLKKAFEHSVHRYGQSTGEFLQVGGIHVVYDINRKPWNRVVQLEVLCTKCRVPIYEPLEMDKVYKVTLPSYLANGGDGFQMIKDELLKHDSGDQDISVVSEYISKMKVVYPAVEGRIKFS

T2: Human CD73 on cells (MDA-MB-231, Jurkat CD73 knock-in, NCI-H322) (human, UniProt P21589 27-549)
T2 construct: GPI-anchored native protein; also called native human CD73
T2 sequence: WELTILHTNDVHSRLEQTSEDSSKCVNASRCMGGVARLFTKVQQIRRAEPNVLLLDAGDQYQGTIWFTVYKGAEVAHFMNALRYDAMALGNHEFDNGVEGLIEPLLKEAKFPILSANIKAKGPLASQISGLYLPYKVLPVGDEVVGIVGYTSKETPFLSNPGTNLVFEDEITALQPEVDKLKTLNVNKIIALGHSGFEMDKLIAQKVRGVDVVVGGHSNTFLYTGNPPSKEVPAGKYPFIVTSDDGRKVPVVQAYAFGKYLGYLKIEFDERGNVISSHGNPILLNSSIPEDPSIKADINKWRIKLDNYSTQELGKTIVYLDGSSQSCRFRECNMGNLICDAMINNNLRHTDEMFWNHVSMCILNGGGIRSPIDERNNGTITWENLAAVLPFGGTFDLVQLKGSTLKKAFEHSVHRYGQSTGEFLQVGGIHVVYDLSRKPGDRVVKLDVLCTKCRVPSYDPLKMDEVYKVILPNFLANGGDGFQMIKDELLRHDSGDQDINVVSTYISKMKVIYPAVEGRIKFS

T3: Cynomolgus CD73 on MK-1 cells (cynomolgus, UniProt A0A2K5V5U7 27-549)
T3 construct: whole, on cells; also called MK-1 (cyno)
T3 sequence: T2 sequence with M199T, T350A, V466I

T4: Human CD73 ECD (human, UniProt P21589 27-549)
T4 sequence: T2 sequence

T5: Murine CD73 ECD (murine, UniProt Q61503 29-551, limits assumed)
T5 construct: extracellular domain; In-house recombinant ECD; also called murine CD73 extracellular domain; muCD73
T5 sequence (looked up): T1 sequence (looked up)

T6: Cynomolgus CD73 ECD (cynomolgus, UniProt A0A2K5V5U7 27-549)
T6 construct: extracellular domain; also called cyno CD73
T6 sequence: T2 sequence with M199T, T350A, V466I

B1: C1 (IgG1-TM) (antibody, V domains shown)
VH: EVQLLESGGGLVQPGGSLRLSCAASGFTFSSYAYSWVRQAPGKGLEWVSAISGSGGSTYYADSVKGRFTISRDNSKNTLYLQMNSLRAEDTAVYYCARLGYSTIDKWGRGTLVTVSS
VL: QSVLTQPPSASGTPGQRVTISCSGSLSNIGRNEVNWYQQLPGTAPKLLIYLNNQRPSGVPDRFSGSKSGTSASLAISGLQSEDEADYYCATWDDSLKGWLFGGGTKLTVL
notes: IgG1-TM format; also called clone 10 C1
B2: CD730004 (antibody, V domains shown)
VH: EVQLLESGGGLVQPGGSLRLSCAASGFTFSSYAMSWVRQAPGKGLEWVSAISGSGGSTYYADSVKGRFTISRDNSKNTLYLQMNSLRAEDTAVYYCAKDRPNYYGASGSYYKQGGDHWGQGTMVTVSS
VL: NFMLTQPHSVSESPGQTVTISCTRSSGSIASKYVQWYQKRPGSSPTTVIYEDTQRPSGVPDRFSGSIDISSNSASLTISGLRTEDEADYYCQSYDSTNWVFGGGTKVTVL
notes: IgG1-TM format; also called CD730004 antibody
B3: CD730008 (antibody, IgG1, V domains shown)
VH: B1 VH with S7T, Y34M, L99G, G100N, S102G, T103N, I104L, K106H, R109K
VL: QSVLTQPPSVSVSPGQTASITCSGDKVGDKYASWYQQKPGQSPVLVIYQDRKRPSGIPERFSGSNSGNTATLTISGTQPMDEADYYCQAWDSSHWVFGGGTKLTVL
notes: IgG1-TM format; also called CD730008 antibody
B4: CD730042 (antibody, V domains shown)
VH: GVQLVQSGGGLVQPGGSLRLSCAASGFTFSSYGMHWVRQAPGKGLEWVAVISYDGSIKYYADSVKGRFTISRDDSKNALYLQMNSLRAEDTAVYYCSTLSGSYGYFDYWGRGTLVTVSS
VL: QSVLTQPASVSGSPGQSITISCAGTSSDVGGYNYVSWYQQHPGKAPKLMIYEGSKRPSGVSNRFSGSKSGNTASLTISGLQAEDEADYYCSSYTTRSTRVFGGGTKLTVL
notes: IgG1-TM format; also called CD730042 antibody
B5: CD730046 (antibody, V domains shown)
VH: QVQLVQSGGGVVQPGRSLRLSCAASGFTFSSYGMHWVRQAPGKGLEWVAVISYDGSIKYYADSVKGRFTISRDNSKNSLFLQMNSLRDDDTATYYCARGHLLRIGDIFYYSLDVWGQGTLVTVSS
VL: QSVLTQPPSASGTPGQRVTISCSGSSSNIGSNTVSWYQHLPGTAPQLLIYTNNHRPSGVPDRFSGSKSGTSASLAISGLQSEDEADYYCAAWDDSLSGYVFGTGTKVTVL
notes: IgG1-TM format; also called CD730046 antibody
B6: CD730011 (antibody, V domains shown)
VH: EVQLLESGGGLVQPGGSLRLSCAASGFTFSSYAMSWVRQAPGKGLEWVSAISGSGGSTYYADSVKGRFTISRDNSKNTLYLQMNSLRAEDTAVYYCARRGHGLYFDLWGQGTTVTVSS
VL: NFMLTQPHSVSESPGKTVTISCTRSSGSIASKYVQWYQQRPGSSPMAVIYKDNQRSSGVPDRFSGSIDSSSNSASLTISGLKPEDEADYYCQSYDASNYYVFGTGTKVTVL
notes: IgG1-TM format; also called CD730011 antibody; CD7300011
B7: CD730021 (antibody, V domains shown)
VH: QVQLQESGPGLVRPSETLSLTCTVSGGSISSSSYYWAWVRQSPGKGLEWIGNIYYRGSTYYNPSLKSRVTMSVDMSKHQFSLKLSSLNAADTAVYYCASLYSGTYVFDYWGRGTLVTVSS
VL: QSVLTQPPSASGTPGQRVTISCSGSRPNIGGNTVNWYQQLPGAAPKLLIYSNSQRPSGVPDRFSGSKYGTSASLAISGLQSDDEADYYCGTWDDSLNGPVFGRGTKLTVL
notes: IgG1-TM format; also called CD730021 antibody
B8: CD730010 GL9 VH M34I Fab (Fab, name in Kabat numbering, V domains shown)
VH: B1 VH with Y34I, K106Y
VL: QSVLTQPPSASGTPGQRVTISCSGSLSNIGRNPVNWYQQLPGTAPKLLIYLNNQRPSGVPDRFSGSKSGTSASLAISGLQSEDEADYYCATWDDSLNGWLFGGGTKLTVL
notes: Bacterial Fab, normalized supernatant
B9: CD730010 GL9 VH G54W Fab (Fab, name in Kabat numbering, V domains shown)
VH: B1 VH with Y34M, G55W, K106Y
VL: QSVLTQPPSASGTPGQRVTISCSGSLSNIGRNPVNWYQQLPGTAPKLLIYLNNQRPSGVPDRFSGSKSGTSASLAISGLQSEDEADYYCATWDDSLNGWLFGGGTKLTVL
notes: as for B8
B10: CD730010 GL9 VH S52W Fab (Fab, name in Kabat numbering, V domains shown)
VH: B1 VH with Y34M, S52W, K106Y
VL: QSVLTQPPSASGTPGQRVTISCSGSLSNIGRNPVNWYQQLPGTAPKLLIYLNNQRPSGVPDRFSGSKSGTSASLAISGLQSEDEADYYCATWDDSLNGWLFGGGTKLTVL
notes: as for B8
B11: CD730010 GL9 VH S56R Fab (Fab, name in Kabat numbering, V domains shown)
VH: B1 VH with Y34M, S57R, K106Y
VL: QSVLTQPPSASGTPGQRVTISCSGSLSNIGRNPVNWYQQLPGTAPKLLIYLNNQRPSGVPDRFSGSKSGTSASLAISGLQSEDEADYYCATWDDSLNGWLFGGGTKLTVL
notes: as for B8
B12: CD730010 GL9 VH S35H Fab (Fab, name in Kabat numbering, V domains shown)
VH: B1 VH with Y34M, S35H, K106Y
VL: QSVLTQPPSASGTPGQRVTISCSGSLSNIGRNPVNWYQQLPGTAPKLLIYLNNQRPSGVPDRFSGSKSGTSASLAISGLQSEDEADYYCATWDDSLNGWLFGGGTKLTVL
notes: as for B8
B13: CD730010 GL9 VH G54N Fab (Fab, name in Kabat numbering, V domains shown)
VH: B1 VH with Y34M, G55N, K106Y
VL: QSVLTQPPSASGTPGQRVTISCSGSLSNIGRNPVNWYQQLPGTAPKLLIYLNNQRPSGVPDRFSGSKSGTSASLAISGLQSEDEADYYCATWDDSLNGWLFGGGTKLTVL
notes: as for B8
B14: CD730010 GL9 VH M34Y Fab (Fab, name in Kabat numbering, V domains shown)
VH: B1 VH with K106Y
VL: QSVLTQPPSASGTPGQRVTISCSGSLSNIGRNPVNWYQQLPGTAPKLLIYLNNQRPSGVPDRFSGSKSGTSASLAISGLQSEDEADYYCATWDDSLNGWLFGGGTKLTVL
notes: as for B8

The target of the first assay is T1, Murine CD73 on cells (4T1, Jurkat mCD73 …). The experiment in a line: flow cytometry on cells. For orientation: Flow cytometry measures light scatter and fluorescence of single cells or particles in a stream.
What is called Kd is a measure of binding affinity in units of concentration. A lower Kd goes with tighter binding. The molecule B1 came in with a Kd of 0.095 nM.

A further assay deals with T2, Human CD73 on cells (MDA-MB-231, Jurkat …). The experiment in a line: flow cytometry on cells.
B1 displayed a Kd of 0.179 nM.

Another assay concerns the target T3, Cynomolgus CD73 on MK-1 cells. The experiment in a line: flow cytometry on cells.
On to B1, for which the Kd turned out to be 0.16 nM. That is a sub-nanomolar value.

The next assay addresses T2, Human CD73 on cells (MDA-MB-231, Jurkat …). The experiment in a line: cell-based or functional assay.
Regarding B2, the “Enzyme Inhibition, MDA-MB-231, 1/EC50 (nM)” value worked out at 0.06 nM⁻¹ and the “Internalization, MDA-MB-231, 1/EC50 (nM)” value stood at 0 nM⁻¹.
The matching figures for B3: 0.11 nM⁻¹ and 0 nM⁻¹.
The matching figures for B4: 0.0032 nM⁻¹ and 0 nM⁻¹.
The matching figures for B5: 0.081 nM⁻¹ and 0 nM⁻¹.
As to B6, the “Enzyme Inhibition, MDA-MB-231, 1/EC50 (nM)” value was found to be 0.00068 nM⁻¹ and the “Internalization, MDA-MB-231, 1/EC50 (nM)” value was found to be 0 nM⁻¹.
The matching figures for B7: 0.0095 nM⁻¹ and 0.0011 nM⁻¹.

The next assay addresses T4, Human CD73 ECD. The experiment in a line: cell-based or functional assay.
For the molecule B3, the “Enzyme Inhibition, rCD73, 1/EC50 (nM)” value turned out to be 0 nM⁻¹.
On the same count and under the same terms, the result for B4 reads 0 nM⁻¹; that for B5, 0 nM⁻¹.
As for B6, the “Enzyme Inhibition, rCD73, 1/EC50 (nM)” value was 0 nM⁻¹.
Still for that read-out and setting: the result for B7 reads 0.0011 nM⁻¹.

In another assay the target is T5, Murine CD73 ECD. The experiment in a line: direct ELISA, normalized Fab supernatant, vs CD730010 GL9.
Consider B8, for which the “ELISA signal, fold improvement over parental antibody” value (shortened to “ELISA signal, fold improvement”) came to 1.1 fold.
With B9, the “ELISA signal, fold improvement” value stood at 3.7 fold.
Same read-out and setting: as for B10, the figure is 4.4 fold; as for B11, 4.9 fold; as for B12, 1.1 fold.
Same read-out and setting: the result for B13 reads 7.1 fold.
B14: the “ELISA signal, fold improvement” value was 2.9 fold.

The target in a further assay is T4, Human CD73 ECD. The description is as above.
For the molecule B8, the “ELISA signal, fold improvement” value is 1.5 fold.
Regarding B9, the “ELISA signal, fold improvement” value worked out at 4.2 fold.
B10: the “ELISA signal, fold improvement” value was found to be 8.9 fold.
On the same count and under the same terms, as for B11, the figure is 5.6 fold.
Still for that read-out and setting: the result for B12 reads 1.8 fold; that for B13, 8.9 fold; that for B14, 3.9 fold.

The target of a further assay is T5, Murine CD73 ECD. The experiment in a line: binding assay, format not stated.
Turning to B2, the 1/EC50 was found to be 0.00023 nM⁻¹.
Take B3: the 1/EC50 is 0.00058 nM⁻¹.
Same read-out and setting: as for B5, the figure is 0.0052 nM⁻¹.
Same read-out and setting: as for B6, the figure is 0.0015 nM⁻¹; as for B7, 0.00057 nM⁻¹.

In the next assay the target is T4, Human CD73 ECD. The experiment in a line: binding assay, format not stated.
Molecule B3 showed a 1/EC50 of 0.0011 nM⁻¹.
Same read-out and setting: the result for B4 reads 0.0017 nM⁻¹.
Consider B5, for which the 1/EC50 is 0.0041 nM⁻¹.
On the same count and under the same terms, the result for B6 reads 0.0021 nM⁻¹.
Still for that read-out and setting: as for B7, the figure is 0.00085 nM⁻¹.

In another assay the target is T6, Cynomolgus CD73 ECD. The experiment in a line: binding assay, format not stated.
The molecule B3 registered a 1/EC50 of 0.0011 nM⁻¹.
On the same count and under the same terms, the result for B4 reads 0.0014 nM⁻¹; that for B5, 0.01 nM⁻¹; that for B6, 0.0027 nM⁻¹.
Same read-out and setting: the result for B7 reads 0.0012 nM⁻¹.

Another assay deals with T5, Murine CD73 ECD. The experiment in a line: SPR (Proteon).
In the case of B1, the Kd is 0.006 nM.

Another assay deals with T4, Human CD73 ECD. The experiment in a line: SPR (Proteon).
In turn, B1 yielded a Kd of 0.029 nM.

A further assay addresses T6, Cynomolgus CD73 ECD. The experiment in a line: SPR (Proteon).
Molecule B1 displayed a Kd of 0.012 nM.
